This test concerns the target thermostable exoshell (tES) (Archaeoglobus fulgidus) (UniProt O29424). Put plainly: AUC; unpublished observations; no conditions given.
Chain of UniProt O29424 (O29424 entry or part of it): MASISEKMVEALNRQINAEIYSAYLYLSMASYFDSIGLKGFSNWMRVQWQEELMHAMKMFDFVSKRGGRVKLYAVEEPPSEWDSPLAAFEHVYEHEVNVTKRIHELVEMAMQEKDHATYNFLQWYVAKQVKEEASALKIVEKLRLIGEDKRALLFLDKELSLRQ

The substance “horseradish peroxidase (HRP) (from UniProt P00433 31-338) (enzyme)” returned a stoichiometry N (HRP molecules per tES) of 2.

Values taken from article PMC8622885.
